Source: article PMC8786643 (iScience, 2022)

Tests used:
mouse Glut12/Slc2a12 = target: T1, mouse Glut12/Slc2a12 (Mus musculus, UniProt Q8BFW9); experiment: [[…]-14C]-urate uptake in transiently transfected HEK293 cells; assay type: cell-based; settings: 10 µM urate, Krebs-Ringer buffer, pH 5.4, 10 min; labelled compound
T1 construct: full-length wild-type ORF in pEGFP-N1, EGFP-tagged; transient expression in HEK293 cells
T1 sequence (Q8BFW9 1-622): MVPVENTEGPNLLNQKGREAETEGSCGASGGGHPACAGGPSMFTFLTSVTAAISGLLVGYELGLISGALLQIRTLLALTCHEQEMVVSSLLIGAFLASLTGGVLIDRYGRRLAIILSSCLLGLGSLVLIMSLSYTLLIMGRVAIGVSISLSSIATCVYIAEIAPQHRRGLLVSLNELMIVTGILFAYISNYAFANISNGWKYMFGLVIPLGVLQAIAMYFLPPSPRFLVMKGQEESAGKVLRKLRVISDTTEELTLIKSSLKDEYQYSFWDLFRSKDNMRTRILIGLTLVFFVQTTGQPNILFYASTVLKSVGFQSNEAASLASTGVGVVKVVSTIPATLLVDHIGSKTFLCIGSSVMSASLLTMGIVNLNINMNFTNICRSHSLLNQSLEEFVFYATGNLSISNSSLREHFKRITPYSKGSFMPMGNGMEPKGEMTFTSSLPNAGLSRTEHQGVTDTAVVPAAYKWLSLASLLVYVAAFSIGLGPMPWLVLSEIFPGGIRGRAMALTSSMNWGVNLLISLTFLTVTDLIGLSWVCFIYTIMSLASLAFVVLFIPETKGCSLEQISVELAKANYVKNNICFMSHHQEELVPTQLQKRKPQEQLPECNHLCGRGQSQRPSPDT

[1] = substrate: O=C1O[C@H]([C@@H](O)CO)C(O)=C1O; experiment: cells, lysate or membranes; settings: Krebs-Ringer buffer, pH 5.4, 37 °C, labelled compound

Molecule: O=c1[nH]c(=O)c2[nH]c(=O)[nH]c2[nH]1 [urate]
- [8-14C]-urate uptake in transiently transfected HEK293 cells (mouse Glut12/Slc2a12): cell-based urate uptake assays using human GLUT12- and mouse Glut12-expressing HEK293 cells were conducted

B1: mouse Glut12/Slc2a12 (Mus musculus) (protein)
chain: T1 sequence (Q8BFW9 1-622)
- Km [1]: 1245 µM

B2: human GLUT12/SLC2A12 (Homo sapiens) (protein)
chain: MVPVENTEGPSLLNQKGTAVETEGSGSRHPPWARGCGMFTFLSSVTAAVSGLLVGYELGIISGALLQIKTLLALSCHEQEMVVSSLVIGALLASLTGGVLIDRYGRRTAIILSSCLLGLGSLVLILSLSYTVLIVGRIAIGVSISLSSIATCVYIAEIAPQHRRGLLVSLNELMIVIGILSAYISNYAFANVFHGWKYMFGLVIPLGVLQAIAMYFLPPSPRFLVMKGQEGAASKVLGRLRALSDTTEELTVIKSSLKDEYQYSFWDLFRSKDNMRTRIMIGLTLVFFVQITGQPNILFYASTVLKSVGFQSNEAASLASTGVGVVKVISTIPATLLVDHVGSKTFLCIGSSVMAASLVTMGIVNLNIHMNFTHICRSHNSINQSLDESVIYGPGNLSTNNNTLRDHFKGISSHSRSSLMPLRNDVDKRGETTSASLLNAGLSHTEYQIVTDPGDVPAFLKWLSLASLLVYVAAFSIGLGPMPWLVLSEIFPGGIRGRAMALTSSMNWGINLLISLTFLTVTDLIGLPWVCFIYTIMSLASLLFVVMFIPETKGCSLEQISMELAKVNYVKNNICFMSHHQEELVPKQPQKRKPQEQLLECNKLCGRGQSRQLSPET
- Km ([1]; 5 min uptake): 846 µM
